The values that follow come from US20190225670A1, “COMPOUNDS AND METHODS FOR ACTIVATING TIE2 SIGNALING” (ASCLEPIX THERAPEUTICS, LLC, priority 2016, published 2019).

The subject of assay [1] is MEC monolayers. In words: FITC Transwell permeability assay. The conditions noted are these: each agent alone. The class given is cell-based, human. The method, then: The integrity of these junctions is also important for the regulation of monolayer permeability by controlling the size of intercellular openings. The effect of the AXT107 on EC permeability was further investigated by the transendothelial diffusion of FITC-labeled dextran across MEC monolayers seeded onto permeable Transwell® substrates.
Transwell, twenty-four-well inserts (Corning) were coated with 7.5 μg/cm^2 FN1 for two hours at 37° C., aspirated, and then dried for thirty minutes at room temperature. Wells were then seeded with 7.5×10^4 MECs in 100 μl of EBM-2 media (without phenol red) and allowed to settle for thirty minutes at room temperature. 1 ml of EGM-2 media was then added to the bottom chamber and an additional 200 μl to the top chamber. The plate was incubated for twenty-four hours at 37° C. after which the media was aspirated and an additional 7.5×10^4 MECs were plated in each well as described above. After forty-eight hours at 37° C., the media was aspirated from both chambers and the cells were washed twice in dPBS containing Ca^2+ and Mg^2+, once with EBM-2 media (without phenol red) and serum starved in EBM-2 media applied to both chambers for two hours at 37° C. After this incubation, 100 μM AXT107 or an equivalent amount of DMSO vehicle was added and incubated for an additional ninety minutes. In the top chamber, the cells were then treated with 200 ng/ml Ang2, 100 ng/ml VEGFA, both, or PBS control and in the bottom chamber, the cells were then treated with 25 μg/ml FITC-Dextran (40 kDa MW). AXT107 was also added in both chambers to maintain a concentration of 100 μM. After three hours, 10 μl was removed from the top chamber of each well and mixed with 90 μl of water in a clear bottom, 96-well plate. Fluorescence values for each sample were calculated using a Perkin Elmer plate reader.

Assay [2] deals with Tie2. In words: Western blot of phospho-Tie2 (Y992) in MEC monolayers treated with AXT107 and angiopoietin. The settings on record: ligand alone, no AXT107. Format: cell-based, human. Here is the method: A confluent monolayer of human microvascular endothelial cells (HMEC) was serum starved with EBM-2 overnight. After a 90 min treatment with AXT107 at concentrations of 0, 10, 32, and 100 μM, the cells were treated for 15 min with 1 mM sodium orthovanadate. Next the cells were treated with Angiopoietin-2 (Ang-2) at 200 ng/mL for 15 min. Following cell lysis, the lysates were immunoblotted for pTie2 (Y992), pSTAT3 (Y705), and pAkt (S473).
To investigate the effects of the integrin inhibitor AXT107 on Tie2 signaling, confluent monolayers of microvascular endothelial cells (MECs) on fibronectin-coated dishes were treated with various concentrations of AXT107 followed by exposure to the Tie2 ligands Ang1 or Ang2.
For Ang1/2 signaling investigations, cell culture dishes (10 cm diameter) were coated with 5 μg/ml fibronectin (FN1; Sigma-Aldrich, St. Louis, Mo.) for two hours at 37° C. The FN1 solution was then removed by aspiration and 5×10^6 microvascular endothelial cells (MECs; Lonza, Walkersville, Md.) were plated in EGM-2MV media (Lonza) and cultured for forty-eight hours at 37° C. The cells were then serum starved for sixteen hours in serum-free EGM-2 base media (Lonza). AXT107 (0-100 μM, as indicated) was subsequently added to each culture and incubated for seventy-five minutes at 37° C. The cultures were then treated with 1 mM sodium vanadate (New England Biolabs, Ipswich, Mass.) for fifteen minutes to enhance the phospho-Tie2 signal followed by stimulation with 200 ng/ml angiopoietin (R&D Systems, Minneapolis, Minn.) for an additional fifteen minutes. The cells were then transferred to ice, washed twice with ice cold Dulbecco's phosphate-buffered saline (dPBS) containing Ca^2+ and Mg^2+, and collected by scraping in 500 μl of 1×Blue Loading Buffer (Cell Signaling, Danvers, Mass.). Lysate samples were then sonicated, boiled, and resolved by SDS-PAGE. Specific proteins were identified by Western blot, using the following primary antibodies: Cell Signaling—phospho-Tie2 (Y992) (Cat#: 4221), Tie2 (Cat#: 7403), phospho-Stat3 (Y705) (Cat#: 4113), Stat3 (Cat#: 4904), phospho-Akt (S473) (Cat#: 4058), Akt (Cat#: 9272), phospho-p44/42 MAPK (T202/Y204) (Cat#: 4370), p44/42 MAPK (Cat#: 4695); BD Transduction Laboratories—β1 integrin (Cat#: 610467); Millipore—α5 integrin (Cat#: AB1928) and detected with HRP-conjugated goat anti-rabbit and sheep anti-mouse secondary antibodies (GE healthcare).
(In general: Immunoblotting shows a protein as a band on a membrane.)

For the molecule VEGF, the “FITC-dextran diffusion across the monolayer, single treatment” value in assay [1] is listed as “appeared to increase permeability (although non-significantly)”.

B1: Ang2: Tie2 ligand; endogenous Tie2 antagonist and weak agonist (protein)
chain: YNNFRKSMDSIGKKQYQVQHGSCSYTFLLPEMDNCRSSSSPYVSNAVQRDAPLEYDDSVQRLQVLENIMENNTQWLMKLENYIQDNMKKEMVEIQQNAVQNQTAVMIEIGTNLLNQTAEQTRKLTDVEAQVLNQTTRLELQLLEHSLSTNKLEKQILDQTSEINKLQDKNSFLEKKVLAMEDKHIIQLQSIKEEKDQLQVLVSKQNSIIEELEKKIVTATVNNSVLQKQQHDLMETVNNLLTMMSTSNSAKDPTVAKEEQISFRDCAEVFKSGHTTNGIYTLTFPNSTEEIKAYCDMEAGGGGWTIIQRREDGSVDFQRTWKEYKVGFGNPSGEYWLGNEFVSQLTNQQRYVLKIHLKDWEGNEAYSLYEHFYLSSEELNYRIHLKGLTGTAGKISSISQPGNDFSTKDGDNDKCICKCSQMLTGGWWFDACGPSNLNGMYYPQRQNTNKFNGIKWYYWKGSGYSLKATTMMIRPADF
Turning to B1, in assay [1], the “FITC-dextran diffusion across the monolayer, single treatment” value is “influenced FITC-dextran diffusion across the monolayer”. Besides, the “Tie2 phosphorylation by ligand alone” value in assay [2] is on record as “insignificant effects”.

B2: Ang1: Tie2 ligand; binds Tie2 and stimulates phosphorylation and downstream signaling (protein)
chain: SNQRRSPENSGRRYNRIQHGQCAYTFILPEHDGNCRESTTDQYNTNALQRDAPHVEPDFSSQKLQHLEHVMENYTQWLQKLENYIVENMKSEMAQIQQNAVQNHTATMLEIGTSLLSQTAEQTRKLTDVETQVLNQTSRLEIQLLENSLSTYKLEKQLLQQTNEILKIHEKNSLLEHKILEMEGKHKEELDTLKEEKENLQGLVTRQTYIIQELEKQLNRATTNNSVLQKQQLELMDTVHNLVNLCTKEGVLLKGGKREEEKPFRDCADVYQAGFNKSGIYTIYINNMPEPKKVFCNMDVNGGGWTVIQHREDGSLDFQRGWKEYKMGFGNPSGEYWLGNEFIFAITSQRQYMLRIELMDWEGNRAYSQYDRFHIGNEKQNYRLYLKGHTGTAGKQSSLILHGADFSTKDADNDNCMCKCALMLTGGWWFDACGPSNLNGMFYTAGQNHGKLNGIKWHYFKGPSYSLRSTTMMIRPLDF
For the molecule B2, the “Tie2 phosphorylation by ligand alone” value in assay [2] is “induced phosphorylation”.
